± gives the standard error. Variants at the floor of the assay were thinned out.
B1: glmS ribozyme (parent)
chain: AUAAAAGCGCCAGAACUACAGAAAUGUAGUUGACGAGGAGGAGGUUUAUCGAAUUUUCGGCGGAUGCCUCCAAA

Experiments:
Settings in all cases: with glucosamine-6-phosphate
[1] = variants of: B1; test: self-cleavage kobs at 40 uM GlcN6P; higher = faster cleavage; RNA array
Method in brief: (§1)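 A hybridised Cy3 probe tracked barcoded ribozyme variants, transcribed in situ by E. coli RNA polymerase on sequenced MiSeq chips, at 37 °C. The variants received 40 μM to 10 mM glucosamine-6-phosphate in HEPES/KCl/Mg(OAc)2 buffer. kobs came from decay fits and kcat and KM from weighted Michaelis–Menten fits.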

[2] = variants of: B1; test: self-cleavage kobs at 160 uM GlcN6P; higher = faster cleavage; RNA array
Method in brief: as §1

[3] = variants of: B1; test: self-cleavage kobs at 640 uM GlcN6P; higher = faster cleavage; RNA array
Method in brief: as §1

[4] = variants of: B1; test: self-cleavage kobs at 2500 uM GlcN6P; higher = faster cleavage; RNA array
Method in brief: as §1

[5] = variants of: B1; test: self-cleavage kobs at 10000 uM GlcN6P; higher = faster cleavage; RNA array
Method in brief: as §1

Variant | self-cleavage kobs at 40 uM GlcN6P [1] | self-cleavage kobs at 160 uM GlcN6P [2] | self-cleavage kobs at 640 uM GlcN6P [3] | self-cleavage kobs at 2500 uM GlcN6P [4] | self-cleavage kobs at 10000 uM GlcN6P [5]
A42U A48G | < 1e-05 s⁻¹ | < 1e-05 s⁻¹ | < 1e-05 s⁻¹ |  | 
G41C U45G U57C G59A C61U | < 1e-05 s⁻¹ |  | < 1e-05 s⁻¹ | < 1e-05 s⁻¹ | 
U30C U57C | < 1e-05 s⁻¹ |  | < 1e-05 s⁻¹ |  | 
A6C C16G C71A | < 1e-05 s⁻¹ |  |  |  | 
C8G A33U | < 1e-05 s⁻¹ | < 1e-05 s⁻¹ | < 1e-05 s⁻¹ | < 1e-05 s⁻¹ | < 1e-05 s⁻¹
A15C C34A G37U G41A | < 1e-05 s⁻¹ |  |  |  | < 1e-05 s⁻¹
A36C A39C C58U C61A C71A | < 1e-05 s⁻¹ |  |  |  | 
G59U C67U U69A |  | 6.91e-05 ± 2.5e-05 s⁻¹ |  |  | 
U56A G63C |  | < 1e-05 s⁻¹ |  | < 1e-05 s⁻¹ | 
G7A C10G C50U | < 1e-05 s⁻¹ |  |  |  | 
A6C G7U | < 1e-05 s⁻¹ | < 1e-05 s⁻¹ | < 1e-05 s⁻¹ | < 1e-05 s⁻¹ | < 1e-05 s⁻¹
C16U U47G | 0.000296 ± 4.7e-05 s⁻¹ | 0.000527 ± 0.00011 s⁻¹ | 0.00106 ± 0.00021 s⁻¹ | 0.00142 ± 0.00037 s⁻¹ | 0.00951 ± 0.0018 s⁻¹
C11U G40C U46G | < 1e-05 s⁻¹ |  |  |  | 
A42G C71A | 0.000338 ± 7.5e-05 s⁻¹ | 0.000606 ± 0.00021 s⁻¹ | 0.00207 ± 0.00033 s⁻¹ | 0.00316 ± 0.0013 s⁻¹ | 0.0105 ± 0.003 s⁻¹
C8G G59C | < 1e-05 s⁻¹ |  | < 1e-05 s⁻¹ |  | < 1e-05 s⁻¹
G9C U49C |  | < 1e-05 s⁻¹ | < 1e-05 s⁻¹ | < 1e-05 s⁻¹ | < 1e-05 s⁻¹
A6U G13C | < 1e-05 s⁻¹ |  | < 1e-05 s⁻¹ | < 1e-05 s⁻¹ | 
G13U C50G C61G G62A U65G C68U | 9.2e-05 ± 3.1e-05 s⁻¹ |  |  |  | 3.93e-05 ± 1.7e-05 s⁻¹
C8A U57A G63A | < 1e-05 s⁻¹ |  |  | < 1e-05 s⁻¹ | 
G13C C50G |  | 0.00119 ± 0.00034 s⁻¹ |  |  | 
U46A A48C | < 1e-05 s⁻¹ |  |  |  | 
C34U G37C G51A C68A | < 1e-05 s⁻¹ |  |  |  | 
G13U G32U A36G G38C U54G | < 1e-05 s⁻¹ |  |  |  | 
A36G G62C C67U | < 1e-05 s⁻¹ |  |  |  | < 1e-05 s⁻¹
C8U C11U C16G U55G |  | < 1e-05 s⁻¹ | < 1e-05 s⁻¹ |  | 

Variant | self-cleavage kobs at 40 uM GlcN6P [1] | self-cleavage kobs at 160 uM GlcN6P [2] | self-cleavage kobs at 640 uM GlcN6P [3] | self-cleavage kobs at 2500 uM GlcN6P [4] | self-cleavage kobs at 10000 uM GlcN6P [5]
G35U A48U | < 1e-05 s⁻¹ | < 1e-05 s⁻¹ | < 1e-05 s⁻¹ |  | < 1e-05 s⁻¹
A12C C50G | 5.75e-05 ± 1.5e-05 s⁻¹ | 0.000244 ± 8.9e-05 s⁻¹ | 5.32e-05 ± 1.5e-05 s⁻¹ | 8.38e-05 ± 1.9e-05 s⁻¹ | 
A15C A48G U69G | < 1e-05 s⁻¹ |  |  |  | < 1e-05 s⁻¹
G9C G51A A52U C70G | < 1e-05 s⁻¹ |  | < 1e-05 s⁻¹ |  | 
A6U A15C U55A G66U |  | < 1e-05 s⁻¹ | < 1e-05 s⁻¹ | < 1e-05 s⁻¹ | 
U31C C34G G37A A42U U47A A52U | < 1e-05 s⁻¹ |  |  |  | < 1e-05 s⁻¹
A14G G21U C67U | 0.000937 ± 0.00021 s⁻¹ |  |  |  | 
G37U C50G |  | 7.65e-05 ± 3.7e-05 s⁻¹ |  |  | 
A15G U46G A48U G59A | < 1e-05 s⁻¹ | < 1e-05 s⁻¹ |  | < 1e-05 s⁻¹ | < 1e-05 s⁻¹
G43A C67G C68G | 5.46e-05 ± 1.7e-05 s⁻¹ |  | 0.000155 ± 4.7e-05 s⁻¹ | 6.83e-05 ± 1.7e-05 s⁻¹ | 7.38e-05 ± 1.4e-05 s⁻¹
C8A C34U G40U G41U U45A G62U |  | < 1e-05 s⁻¹ |  |  | 
C58A A64U | < 1e-05 s⁻¹ |  |  | < 1e-05 s⁻¹ | < 1e-05 s⁻¹
C10A C16G U31G G38A C61U | < 1e-05 s⁻¹ |  |  |  | < 1e-05 s⁻¹
G7A G38C | < 1e-05 s⁻¹ | < 1e-05 s⁻¹ | < 1e-05 s⁻¹ | < 1e-05 s⁻¹ | < 1e-05 s⁻¹
G9C U54A | < 1e-05 s⁻¹ | < 1e-05 s⁻¹ |  |  | < 1e-05 s⁻¹
C11G A14G G63U C70A | 9.38e-05 ± 2.9e-05 s⁻¹ |  |  | 0.000123 ± 5.4e-05 s⁻¹ | 
G9C G37A |  | < 1e-05 s⁻¹ | < 1e-05 s⁻¹ | < 1e-05 s⁻¹ | 
A33U G59U G62A | < 1e-05 s⁻¹ |  |  |  | 
A14C C71U | 0.000147 ± 1.3e-05 s⁻¹ | 0.000353 ± 3.7e-05 s⁻¹ | 0.000938 ± 9.2e-05 s⁻¹ | 0.00483 ± 0.00086 s⁻¹ | 0.00794 ± 0.00094 s⁻¹
C34A A64C | < 1e-05 s⁻¹ |  | < 1e-05 s⁻¹ | < 1e-05 s⁻¹ | < 1e-05 s⁻¹
A36U G63U |  | < 1e-05 s⁻¹ | < 1e-05 s⁻¹ | < 1e-05 s⁻¹ | 
U31A G37A C50G A53U C67U | 5.38e-05 ± 1.9e-05 s⁻¹ |  |  |  | 
G13C C61A C71U | < 1e-05 s⁻¹ |  |  |  | 
C8G G13U | < 1e-05 s⁻¹ | < 1e-05 s⁻¹ | < 1e-05 s⁻¹ | < 1e-05 s⁻¹ | < 1e-05 s⁻¹
A6C U49G G62A A64G |  | < 1e-05 s⁻¹ | < 1e-05 s⁻¹ | < 1e-05 s⁻¹ | 
